Patent US20250277029A1 (Amgen, published 2025)
Changes are numbered by the printed parent chain. Names may count otherwise.

B1: 10D10 HC D83K/LC N35Y (26970-1) (antibody, V domains shown)
VH: QVQLQESGPGLVKPSQTLSLTCTVSGGSIRRGGDYWSWIRQHPGKGLEWIGYIYYSGSTNYNPSLKSRATISVKTSKNQFSLKLSSVTAADTAVYYCARDYDILTGYSYYYYGMDVWGQGTTVTVSS
VL: not shown
notes: Earlier 10D10 variant used as benchmark
B2: LIBC528116-1 (antibody, IgG1, V domains shown)
VH: QVQLQESGPGLVKPSQTLSLTCTVSGGSIRRGGDYWAWIRQHPGKGLEWIGHVYYTGSTNYNPRFKDRATISVNTYKNQFSLKLSSVTAADTAVYYCARNYDTVTGYSYYYYGMDVWGQGTTVTVSS
VL: DIQLTQSPSTLSASVGDRVTITCRASQSISNYLNWYQQKPGKAPKLLIYAASSLHSGVPSRFSGSGSGTDFTLTISSLQPEDFASYYCQQYQSYPLTFGQGTKVEIKR
notes: also called 37940-4
B3: LIBC523797-1 (antibody, IgG1, V domains shown)
VH: B2 VH with A37S, N60K, R64N, D67G, N100D, T103I, V104L
VL: DIVMTQSPLSLPVTPGEPASISCRSSQSLLTSYGINYVDWYLQKPGQSPQLLIYQGSNRASGVPDRFSGSGSGTDFTLKISRVEAEDVGVYYCRQAVGLPRTFGQGTKVEIKR
B4: LIBC523797-1 (antibody, V domains shown)
VH: B2 VH with A37S, N60K, R64N, D67G, N100D, T103I, V104L
VL: B3 VL
notes: Expressed as IgG1 SEFL2 mAb
B5: LIBC523670-1 (antibody, V domains shown)
VH: B2 VH with Y55Q, S58Q, N60A, R64N, F65L, K66E, D67S, T103V, V104L, T105S
VL: B3 VL with I35A, V38L, R94M, V97L, G98Q, L99I
notes: also called LIBC523670-1 + VK2 germline fix
B6: LIBC523857-1 (antibody, V domains shown)
VH: B1 VH with Y52H, Y55Q, S56T, S58Q, N60A, S64R, K66E, S67G, K74N, S76Y
VL: B3 VL with T31S, Y33T, I35A, V38L, Q55L, G98E
B7: LIBC528131-1 (antibody, V domains shown)
VH: B1 VH with Y52H, Y55Q, S56T, S58Q, N60A, S64N, K66E, S67G, K74N, S76Y
VL: EIVLTQSPATLSLSPGERATLSCRASQSVSSYLGWYQQKPGQAPRLLIYGASSRATGIPDRFSGSGSGTDFTLTISRLEPEDFAVYYCQQYGSSPRTFGQGTKVEIKR
notes: VK3 LC
B8: LIBC527912-1 (antibody, V domains shown)
VH: B1 VH with Y55Q, S56T, S58Q, N60K, S64N, L65F, K66E, S67G, K74N, S76Y
VL: B2 VL with T10S, N31S, H55R, S85T, Q92S, S93N, Q100G, K103R
B9: LIBC527879-1 (antibody, V domains shown)
VH: B1 VH with S37G, Y52H, Y55Q, S64K, K74D, S76Y, L104F
VL: B2 VL with T10S, S30I, N31S, H55R, S85T, Q92S, S93N, Q100G, K103R
B10: LIBC527827-1 (antibody, V domains shown)
VH: QVQLQESGPGLVKPSQTLSLTCTVSGGSIRRGGDYWGWIRQHPGKGLEWIGHVYQSGQTAYNPKFENRATISVKTYKNQFSLKLSSVTAADTAVYYCARNYDTLTGHSYYYYGMDVWGQGTTVTVSS
VL: B2 VL with L4M
notes: also called LIBC527827-1 + VK1 germline fix(es)
B11: LIBC527968-1 (antibody, V domains shown)
VH: B1 VH with Y52H, Y55Q, N60K, L65F, S67D, K74N, S76Y
VL: B2 VL
notes: also called LIBC527968-1 + VK1 germline fix(es)
B12: LIBC527984-1 (antibody, V domains shown)
VH: B1 VH with Y52H, Y55Q, S56T, S58K, S64N, L65F, K74N, S76Y
VL: B2 VL with L4M
notes: also called LIBC527984-1 + VK1 germline fix(es)
B13: LIBC528141-1 (antibody, V domains shown)
VH: B2 VH with A37S, Y55Q, N60K, D67G, N100D, T103I, V104L
VL: B2 VL
B14: LIBC527906-1 (antibody, V domains shown)
VH: B2 VH with A37G, V53I, Y55Q, R64N, N74D, N100D, T103I, V104L
VL: B2 VL
notes: also called LIBC527906-1 + VK1 germline fix(es)
B15: LIBC527869-1 (antibody, V domains shown)
VH: B2 VH with S28N, V53I, Y55H, S58K, R64S, D67G, N74K, V104L, T105S, Y107N
VL: B2 VL
notes: also called LIBC527869-1 + VK1 germline fix(es)
B16: LIBC528169-1 (antibody, V domains shown)
VH: B1 VH with Y52H, Y55Q, N60K, L65F, K66E, S67D, K74N, S76Y
VL: B2 VL
notes: also called LIBC528169-1 + VK1 germline fix(es)
B17: LIBC680574-1 (yeast-displayed Fab) (Fab, V domains shown)
VH: B2 VH with N60K, R64S, V104L
VL: DIQMTQSPSSLSASVGDRVTITCRASQSISSYLNWYQQKPGKAPKLLIYGARRLGSGVPSRFSGSGSGTDFTLTISSLQPEDFATYYCQQYSSLPVTFGGGTKVEIKR
B18: LIBC681593-1 (yeast-displayed Fab) (Fab, V domains shown)
VH: B2 VH with V53I, Y55Q, D67G, V104L
VL: B17 VL with G50N, S92R, L94S

Molecular target: T1, human cannabinoid receptor type 2 (CB2) (human, UniProt P34972 1-360)
T1 construct: also called huCB2; full length hu CB2
Assay: fold over mock (Table 14)

T1 sequence (P34972 whole entry): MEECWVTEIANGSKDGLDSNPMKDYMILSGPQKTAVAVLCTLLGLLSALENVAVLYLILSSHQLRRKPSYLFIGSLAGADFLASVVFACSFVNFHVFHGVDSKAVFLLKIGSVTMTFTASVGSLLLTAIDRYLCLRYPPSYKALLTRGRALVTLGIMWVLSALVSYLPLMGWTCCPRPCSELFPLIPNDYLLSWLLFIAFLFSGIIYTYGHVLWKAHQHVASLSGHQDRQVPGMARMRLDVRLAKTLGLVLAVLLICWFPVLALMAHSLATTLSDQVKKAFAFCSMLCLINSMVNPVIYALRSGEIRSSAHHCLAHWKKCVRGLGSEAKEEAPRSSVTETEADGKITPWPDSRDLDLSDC

B1: no binding.
B2: no binding.
B3: no binding.

Molecular target: T2, mouse CB1 (mouse, UniProt P47746 1-473)
T2 construct: also called muCB1; murine CB1
Assay: fold over mock (Table 14)

T2 sequence (P47746 whole entry): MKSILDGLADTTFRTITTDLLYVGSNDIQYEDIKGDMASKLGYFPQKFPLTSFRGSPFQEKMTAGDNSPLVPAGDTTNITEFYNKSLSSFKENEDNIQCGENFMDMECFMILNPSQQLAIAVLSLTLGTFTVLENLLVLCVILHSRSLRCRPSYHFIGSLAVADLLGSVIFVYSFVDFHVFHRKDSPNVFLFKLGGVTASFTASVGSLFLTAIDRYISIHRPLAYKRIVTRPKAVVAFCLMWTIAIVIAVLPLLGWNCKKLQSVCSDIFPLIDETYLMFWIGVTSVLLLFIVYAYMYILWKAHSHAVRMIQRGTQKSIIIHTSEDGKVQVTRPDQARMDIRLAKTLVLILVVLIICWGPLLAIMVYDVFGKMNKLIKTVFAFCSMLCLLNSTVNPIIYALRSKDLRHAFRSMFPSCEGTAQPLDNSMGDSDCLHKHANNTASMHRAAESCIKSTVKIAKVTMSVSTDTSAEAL

B1: no binding.
B2: no binding.
B3: no binding.

Molecular target: human cannabinoid receptor 1 (huCB1), full length, expressed on cells (human, UniProt P21554 1-472)
Assay: cell-based or functional assay

Chain of human cannabinoid receptor 1 (huCB1), full length, expressed on cells (P21554 whole entry): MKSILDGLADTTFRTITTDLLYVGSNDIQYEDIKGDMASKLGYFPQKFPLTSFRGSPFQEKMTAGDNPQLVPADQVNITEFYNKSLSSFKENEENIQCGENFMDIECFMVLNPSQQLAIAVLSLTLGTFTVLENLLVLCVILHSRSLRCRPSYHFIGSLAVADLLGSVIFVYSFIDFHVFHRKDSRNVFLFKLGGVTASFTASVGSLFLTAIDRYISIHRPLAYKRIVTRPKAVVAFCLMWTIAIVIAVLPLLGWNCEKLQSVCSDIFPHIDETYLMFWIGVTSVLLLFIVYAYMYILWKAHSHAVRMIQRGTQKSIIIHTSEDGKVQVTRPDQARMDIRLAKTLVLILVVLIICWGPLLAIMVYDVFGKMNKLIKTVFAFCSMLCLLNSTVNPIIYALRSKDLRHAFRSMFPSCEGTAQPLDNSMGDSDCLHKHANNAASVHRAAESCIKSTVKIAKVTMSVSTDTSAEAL

For B4, the “Antagonist assay IC50 (nM), 2-AG” value was 2.9 nM.

B4 was tested, and the “Antagonist assay IC50 (nM), Anandamide” value was 10.4 nM.

With B4 the “Antagonist assay IC50 (nM), CP 55,940” value was 3.4 nM.

With B4 the “Inverse agonist assay IC50” value was 14.1 nM.

Molecular target: T3, GFP-fused huCB1-SMALP (human CB1 in styrene maleic acid lipoparticles) (human, UniProt P21554 1-472)
T3 construct: Prepared as in Luna V. et al. 2018; also called huCB1-GFP-SMALP; wtCB1-SMALP; not shown: GFP fusion
Assay: flow cytometry, yeast-displayed IgG, GFP MFI

T3 sequence (P21554 whole entry, the tested form may be a part): as the sequence (P21554 whole entry) above

Going from B5 to B6, the “100 nM huCB1-SMALP binding (normalized to 10D10)” value falls from 5.42 fold to 4.71 fold.

For B3, the “100 nM huCB1-SMALP binding (normalized to 10D10)” value was 7.01 fold.

Molecular target: T3, GFP-fused huCB1-SMALP (human CB1 in …)
Assay: flow cytometry, yeast-displayed IgG, GFP MFI
Remark: another data set of the same source

First: B7
Second: B8
The “100 nM huCB1-GFP-SMALP binding (normalized to 10D10N35Y)” value of the first is lower: 3.68 fold for the first, 4.32 fold for the second.

First: B9
Second: B2
The “100 nM huCB1-GFP-SMALP binding (normalized to 10D10N35Y)” value of the first is lower: 3.24 fold for the first, 5.8 fold for the second.

First: B10
Second: B11
The “100 nM huCB1-GFP-SMALP binding (normalized to 10D10N35Y)” value of the first is higher: 4.99 fold for the first, 4.65 fold for the second.

Going from B12 to B13, the “100 nM huCB1-GFP-SMALP binding (normalized to 10D10N35Y)” value rises from 4.85 fold to 8.31 fold.

First: B14
Second: B15
The “100 nM huCB1-GFP-SMALP binding (normalized to 10D10N35Y)” value of the first is higher: 3.79 fold for the first, 3.61 fold for the second.

With B16 the “100 nM huCB1-GFP-SMALP binding (normalized to 10D10N35Y)” value was 4.58 fold.

Molecular target: T4, His-tagged huCB1-ND (human CB1 in nanodisc) (human)
T4 construct: CB1 construct of Cell 167(3) (2016) 750-762 expressed in Sf9 cells; POPC:MSP1D1:CB1 480:8:1; also called CB1-nanodisc; huCB1-Nanodisc; not shown: histidine purification tag
Assay: flow cytometry, yeast-displayed IgG, binding/display ratio

T4 sequence (P21554 99-414): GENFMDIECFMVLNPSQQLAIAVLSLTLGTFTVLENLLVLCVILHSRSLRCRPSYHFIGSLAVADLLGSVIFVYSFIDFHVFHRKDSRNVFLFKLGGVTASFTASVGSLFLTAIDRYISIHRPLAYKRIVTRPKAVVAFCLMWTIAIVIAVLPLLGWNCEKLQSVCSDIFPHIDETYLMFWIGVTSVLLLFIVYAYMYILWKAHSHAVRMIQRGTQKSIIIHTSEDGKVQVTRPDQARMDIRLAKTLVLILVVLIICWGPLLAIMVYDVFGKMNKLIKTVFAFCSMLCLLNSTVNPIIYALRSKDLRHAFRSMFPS

Going from B5 to B6, the “relative binding to 0.2 nM huCB1-ND (relative to 10D10N35Y)” value falls from 7.46 fold to 4.05 fold.

Molecular target: T4, His-tagged huCB1-ND (human CB1 in …)
Assay: as above
Remark: another data set of the same source

Compared with B7, B8 is higher in “0.200 nM huCB1-Nanodisc binding (relative to 10D10N35Y)” value: 4.47 fold for the first, 5.95 fold for the second.

First: B9
Second: B10
The “0.200 nM huCB1-Nanodisc binding (relative to 10D10N35Y)” value of the first is higher: 5.75 fold for the first, 4.31 fold for the second.

Compared with B11, B12 is higher in “0.200 nM huCB1-Nanodisc binding (relative to 10D10N35Y)” value: 4.86 fold for the first, 5.21 fold for the second.

First: B13
Second: B14
The “0.200 nM huCB1-Nanodisc binding (relative to 10D10N35Y)” value of the first is lower: 6.2 fold for the first, 8.02 fold for the second.

First: B15
Second: B16
The “0.200 nM huCB1-Nanodisc binding (relative to 10D10N35Y)” value of the first is lower: 4.15 fold for the first, 4.82 fold for the second.

Molecular target: T5, empty-ND (nanodisc without CB1)
T5 construct: its only protein is the nanodisc scaffold; also called Empty Nanodisc
Assay: as above

First: B7
Second: B8
The “50.0 nM Empty Nanodisc binding (relative to 10D10N35Y)” value of the first is higher: 0.63 fold for the first, 0.51 fold for the second.

First: B9
Second: B10
The “50.0 nM Empty Nanodisc binding (relative to 10D10N35Y)” value of the first is lower: 0.73 fold for the first, 1.16 fold for the second.

Compared with B11, B12 is lower in “50.0 nM Empty Nanodisc binding (relative to 10D10N35Y)” value: 0.64 fold for the first, 0.61 fold for the second.

First: B13
Second: B14
The “50.0 nM Empty Nanodisc binding (relative to 10D10N35Y)” value of the first is lower: 0.49 fold for the first, 0.51 fold for the second.

Compared with B15, B16 is lower in “50.0 nM Empty Nanodisc binding (relative to 10D10N35Y)” value: 0.97 fold for the first, 0.68 fold for the second.

Molecular target: T4, His-tagged huCB1-ND (human CB1 in …)
Assay: flow cytometry, yeast-displayed IgG, huCB1-ND over empty-ND

Compared with B5, B6 is lower in “specific huCB1 binding (CB1 ND/Empty ND ratio)” value: 23 ratio for the first, 13.9 ratio for the second.

Molecular target: empty nanodisc (Empty ND)
Assay: flow cytometry, yeast-displayed Fab, 50 nM Empty ND, after background subtraction

Chain of empty nanodisc (Empty ND) (P02647 79-267): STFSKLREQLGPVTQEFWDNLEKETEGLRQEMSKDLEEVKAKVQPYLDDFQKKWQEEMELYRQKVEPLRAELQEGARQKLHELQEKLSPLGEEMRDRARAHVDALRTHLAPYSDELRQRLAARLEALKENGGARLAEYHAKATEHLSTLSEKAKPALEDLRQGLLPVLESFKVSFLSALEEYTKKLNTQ

Going from B17 to B18, the “Relative binding fold change compared to LIBC528116 (Fab)” value rises from 0.72 fold to 0.91 fold.

Molecular target: T6, huCB1 nanodisc (CB1-ND) (human, UniProt P21554 99-414)
T6 construct: The His-tagged CB1 is embedded in a POPC lipid nanodisc with MSP1D1 scaffold protein (molar ratio 480:8:1); also called huCB1-ND; #CB1-008
Assay: Octet BLI; antibody captured by anti-human Fc, CB1-nanodisc in solution, 1:1 model

T6 sequence (P21554 99-414 limits assumed): as the sequence (P21554 99-414) above

B4 was tested, and the Kd was 18 nM.

Molecular target: T7, GFP-fused huCB1 in styrene maleic acid lipoparticles (CB1-SMALP-GFP) (human, UniProt P21554 1-472)
T7 construct: Prepared as described in Luna V. et al. 2018; also called huCB1-GFP-SMALP; GFP-tagged huCB1-SMALP; not shown: GFP fused to huCB1
Assay: flow cytometry, yeast-displayed Fab, 2.5 nM CB1-SMALP-GFP, after background subtraction

T7 sequence (P21554 whole entry, the tested form may be a part): as the sequence (P21554 whole entry) above

Compared with B17, B18 is higher in “Relative binding fold change compared to LIBC528116 (Fab)” value: 1.72 fold for the first, 2.37 fold for the second.
